Read-outs that look alike come from different tables or passages of the source.

Drawing on patent US20230399641A1, this text covers % of cells in the PE-positive (RBD-bound) gate for three substances.

Test [1] deals with No hACE2.
Test [2] deals with No hACE2. The source holds these as a separate data set.
The target of test [3] is No hACE2. This is another data set of the same source.

Regarding “receptor binding domain (RBD) of HCoV-NL63 spike (residues 481-616) (from UniProt Q6Q1S2 481-616) (ligand)”, in the test with No hACE2 [1], the % of cells in the PE-positive (RBD-bound) gate stood at 0.37%. In the test with No hACE2 [2], “receptor binding domain (RBD) of SARS-CoV spike (residues 306-527) (from UniProt P59594 306-527) (ligand)” gave a % of cells in the PE-positive (RBD-bound) gate of 0.24%. In the case of “receptor binding domain (RBD) of wildtype SARS-CoV-2 spike (residues 319-541) (from UniProt P0DTC2 319-541) (ligand)”, the % of cells in the PE-positive (RBD-bound) gate in the test with No hACE2 [3] is 0.17%.
